Results as given in IntAct's records for PubMed 20300064.

B1: Rho guanine nucleotide exchange factor 11 (Homo sapiens), O15085 (parent)
chain: MSVRLPQSIDRLSSLSSLGDSAPERKSPSHHRQPSDASETTGLVQRCVIIQKDQHGFGFTVSGDRIVLVQSVRPGGAAMKAGVKEGDRIIKVNGTMVTNSSHLEVVKLIKSGAYVALTLLGSSPSSMGISGLQQDPSPAGAPRITSVIPSPPPPPPLPPPQRITGPKPLQDPEVQKHATQILRNMLRQEEKELQDILPLYGDTSQRPSEGRLSLDSQEGDSGLDSGTERFPSLSESLMNRNSVLSDPGLDSPRTSPVIMARVAQHHRRQGSDAAVPSTGDQGVDQSPKPLIIGPEEDYDPGYFNNESDIIFQDLEKLKSRPAHLGVFLRYIFSQADPSPLLFYLCAEVYQQASPKDSRSLGKDIWNIFLEKNAPLRVKIPEMLQAEIDSRLRNSEDARGVLCEAQEAAMPEIQEQIHDYRTKRTLGLGSLYGENDLLDLDGDPLRERQVAEKQLAALGDILSKYEEDRSAPMDFALNTYMSHAGIRLREARPSNTAEKAQSAPDKDKWLPFFPKTKKSSNSKKEKDALEDKKRNPILKYIGKPKSSSQSTFHIPLSPVEVKPGNVRNIIQHFENNQQYDAPEPGTQRLSTGSFPEDLLESDSSRSEIRLGRSESLKGREEMKRSRKAENVPRSRSDVDMDAAAEATRLHQSASSSTSSLSTRSLENPTPPFTPKMGRRSIESPSLGFCTDTLLPHLLEDDLGQLSDLEPEPDAQNWQHTVGKDVVAGLTQREIDRQEVINELFVTEASHLRTLRVLDLIFYQRMKKENLMPREELARLFPNLPELIEIHNSWCEAMKKLREEGPIIKEISDLMLARFDGPAREELQQVAAQFCSYQSIALELIKTKQRKESRFQLFMQEAESHPQCRRLQLRDLIISEMQRLTKYPLLLESIIKHTEGGTSEHEKLCRARDQCREILKYVNEAVKQTENRHRLEGYQKRLDATALERASNPLAAEFKSLDLTTRKMIHEGPLTWRISKDKTLDLHVLLLEDLLVLLQKQDEKLLLKCHSKTAVGSSDSKQTFSPVLKLNAVLIRSVATDKRAFFIICTSKLGPPQIYELVALTSSDKNTWMELLEEAVRNATRHPGAAPMPVHPPPPGPREPAQQGPTPSRVELDDSDVFHGEPEPEELPGGTGSQQRVQGKHQVLLEDPEQEGSAEEEELGVLPCPSTSLDGENRGIRTRNPIHLAFPGPLFMEGLADSALEDVENLRHLILWSLLPGHTMETQAAQEPEDDLTPTPSVISVTSHPWDPGSPGQAPPGGEGDNTQLAGLEGERPEQEDMGLCSLEHLPPRTRNSGIWESPELDRNLAEDASSTEAAGGYKVVRKAEVAGSKVVPALPESGQSEPGPPEVEGGTKATGNCFYVSMPSGPPDSSTDHSEAPMSPPQPDSLPAGQTEPQPQLQGGNDDPRRPSRSPPSLALRDVGMIFHTIEQLTLKLNRLKDMELAHRELLKSLGGESSGGTTPVGSFHTEAARWTDGSLSPPAKEPLASDSRNSHELGPCPEDGSDAPLEDSTADAAASPGP

Variants of: B1
Conditions: with rhoa_human RHOA

Row | Variant | effect of a mutation on the interaction
1 | S748A | decreasing interaction
2 | E741N | decreasing interaction

Variants of: B1
Conditions: with rhoa_human RHOA
Remark: another data set of the same source

Row | Variant | effect of a mutation on the interaction
3 | D873N | disrupting interaction
4 | I876M | disrupting interaction
5 | R872D | disrupting interaction

Variants of: B1
Conditions: with rhoa_human RHOA
Remark: another data set of the same source

Row | Variant | effect of a mutation on the interaction
6 | E928A | disrupting interaction

Variants of: B1
Conditions: with rhoa_human RHOA
Remark: another data set of the same source

Row | Variant | effect of a mutation on the interaction
7 | R868G | disrupting interaction
8 | L869A | disrupting interaction
9 | R867Q | disrupting interaction
